# Measured values from publication PMC9825183, “A cap 0-dependent mRNA capture method to analyze the yeast transcriptome”.
# B1: cap 0 160-mer (ssRNA)
# RNA: GAAUACACGGAAUUCCUUUUUUUUUUUUUUUUUUUUUUUUAAGAAAGGCAGACUGCCACAUGCAGCGCCUCAUUUGGAUGUGUCUGGAGUCUUGGAAGCUUGACUACCCUACGUUCUCCUACAAAUGGACCUUGAGAGCUUGUUUGGAGGUUCUAGCAGG
# modifications: 5' cap 0 (m7Gppp), Vaccinia Capping System
# Tests used:
# [1] = system: IFIT1 (His-SUMO removed) (Homo sapiens); experiment: MST; details: apparent Kd; 10 nM RNA, protein up to 1 uM; 5' cap 0 (m7Gppp), Vaccinia Capping System; MST: PBS, 5% glycerol, 0.5 mM TCEP, 0.05% Tween20, 22 C. Pull-down: 50 mM Tris pH 7.5, 150 mM NaCl (wash 250 mM), 1 mM DTT, 5 mM imidazole, 0.01% Tween 20, 3 mM
# IFIT1 (6xHis) = target: T1, IFIT1 (6xHis) (Homo sapiens, UniProt P09914 1-478); experiment: pull-down; Con-B; mix of four RNAs; poly(dI-dC) 2 ug/ml; 3 mM MgCl2; MST: PBS, 5% glycerol, 0.5 mM TCEP, 0.05% Tween20, 22 C. Pull-down: 50 mM Tris pH 7.5, 150 mM NaCl (wash 250 mM), 1 mM DTT, 5 mM imidazole, 0.01% Tween 20, 3 mM MgCl2, 2 ug/ml poly(dI-dC), 4 C; details: protein: recombinant; tags: 6xHis (pETG10a; tag described as N-terminal); single-stranded 5' end (predicted)
# T1 sequence: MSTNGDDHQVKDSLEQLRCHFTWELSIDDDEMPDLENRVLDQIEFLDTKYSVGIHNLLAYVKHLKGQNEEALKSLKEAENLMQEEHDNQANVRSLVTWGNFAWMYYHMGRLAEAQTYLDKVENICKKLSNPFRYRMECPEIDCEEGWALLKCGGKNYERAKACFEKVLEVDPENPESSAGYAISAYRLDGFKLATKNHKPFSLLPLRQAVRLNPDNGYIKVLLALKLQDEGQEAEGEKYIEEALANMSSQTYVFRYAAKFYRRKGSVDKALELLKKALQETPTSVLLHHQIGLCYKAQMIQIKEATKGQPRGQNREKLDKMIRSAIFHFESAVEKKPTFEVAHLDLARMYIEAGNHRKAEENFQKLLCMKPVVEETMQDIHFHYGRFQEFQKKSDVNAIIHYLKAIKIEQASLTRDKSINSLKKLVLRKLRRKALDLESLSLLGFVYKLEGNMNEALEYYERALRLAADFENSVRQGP
Molecule,Kd [1] [nM],binding result (IFIT1 (6xHis))
Cap 0-100-mer (Cy5),47,–
B1,–,binds
